Test results reported in US20080318839A1.

Key:
Cf2-PBD-VP64 (human) = Cf2-PBD-VP64 (human) (UniProt P06401); experiment: cell-based or functional assay
ER-VP64 (mouse) = ER-VP64 (mouse) (UniProt P19785); experiment: cell-based or functional assay
Chain of ER-VP64 (mouse) (P19785 282-599 G525R): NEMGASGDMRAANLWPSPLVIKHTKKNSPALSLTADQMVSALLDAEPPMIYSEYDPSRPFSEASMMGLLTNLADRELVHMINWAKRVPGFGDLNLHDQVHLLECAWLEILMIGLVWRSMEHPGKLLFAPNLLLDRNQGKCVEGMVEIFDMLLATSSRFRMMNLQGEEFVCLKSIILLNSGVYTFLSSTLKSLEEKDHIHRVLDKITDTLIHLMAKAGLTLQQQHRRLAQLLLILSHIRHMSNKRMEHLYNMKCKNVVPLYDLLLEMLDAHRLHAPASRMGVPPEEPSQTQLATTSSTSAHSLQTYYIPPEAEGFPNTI

Chain of C7-PBD-VP64 (P06401 640-914): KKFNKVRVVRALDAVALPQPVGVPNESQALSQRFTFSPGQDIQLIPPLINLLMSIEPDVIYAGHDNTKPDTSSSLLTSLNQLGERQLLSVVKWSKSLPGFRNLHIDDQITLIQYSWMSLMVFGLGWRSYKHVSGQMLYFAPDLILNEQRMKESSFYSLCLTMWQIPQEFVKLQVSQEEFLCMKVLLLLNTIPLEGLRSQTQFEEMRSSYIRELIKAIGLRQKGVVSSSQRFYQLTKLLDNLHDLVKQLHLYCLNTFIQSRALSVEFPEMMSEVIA
Chain of Cf2-PBD-VP64 (human) (P06401 640-914): as above

Substance | ligand-dependent change in transcription, C7-Cf2 TATA luciferase reporter (Cf2-PBD-VP64 (human)) [fold] | luciferase assay, erbB-2 promoter activity in HeLa cells, with Tamoxifen (ER-VP64 (mouse)) [fold] | tamoxifen-dependent activation of the erbB-2 promoter (luciferase) (ER-VP64 (mouse)) [fold]
C7-PBD-VP64 (from UniProt P06401 640-914) | 2 |  | 
E2C-ER (from UniProt P19785 282-599) |  | 3 | 5.3
